In article PMC4510890:

Key:
[1] = target: recombinant rabbit ASI(+)RyR1 (rabbit) (UniProt P11716)
[2] = target: recombinant rabbit ASI(+)RyR1 (rabbit) (UniProt P11716); remark: listed apart in the source

Question: Which relative Po of ASI(+)RyR1 channels in lipid bilayers, 10 nM β1a (50 nM also tested, number not given), cis 10 μM Ca2+, no ATP [1] does the source give for “dihydropyridine receptor β1a subunit (from UniProt P19517 1-524) (natural protein)” here?
Answer: The relative Po of ASI(+)RyR1 channels in lipid bilayers, 10 nM β1a (50 nM also tested, number not given), cis 10 μM Ca2+, no ATP was 4.4 fold.

Question: What about the relative Po of ASI(−)RyR1 channels in lipid bilayers, 10 nM β1a (50 nM also tested, number not given), cis 10 μM Ca2+, no ATP [1] of the same substance?
Answer: The relative Po of ASI(−)RyR1 channels in lipid bilayers, 10 nM β1a (50 nM also tested, number not given), cis 10 μM Ca2+, no ATP was 2.3 fold.

Question: And the relative Po of WT RyR1 channels in lipid bilayers, 10 nM to 100 nM β1a (1.8-fold at 10 nM, 1.9-fold at 100 nM), cis 10 μM Ca2+ and 2 mM ATP [2]?
Answer: The relative Po of WT RyR1 channels in lipid bilayers, 10 nM to 100 nM β1a (1.8-fold at 10 nM, 1.9-fold at 100 nM), cis 10 μM Ca2+ and 2 mM ATP was 1.9 fold.
